From patent publication US20250154265A1 (BEIGENE, published 2025)
Numbering of substitutions follows the chain as printed. Blank lines part the entries; values can stand above or below the binder they belong to.

How the values were obtained:
Assay in all cases: cell-based or functional assay
[1] = biological target: T1, human cMET on cells (Hs746T, H596, EBC-1) (human, UniProt P08581 25-1390)
[2] = biological target: T1, human cMET on cells (Hs746T, H596, …); remark: listed apart in the source
[3] = biological target: T1, human cMET on cells (Hs746T, H596, …); remark: listed apart in the source

T1 sequence (P08581 25-1390 limits assumed): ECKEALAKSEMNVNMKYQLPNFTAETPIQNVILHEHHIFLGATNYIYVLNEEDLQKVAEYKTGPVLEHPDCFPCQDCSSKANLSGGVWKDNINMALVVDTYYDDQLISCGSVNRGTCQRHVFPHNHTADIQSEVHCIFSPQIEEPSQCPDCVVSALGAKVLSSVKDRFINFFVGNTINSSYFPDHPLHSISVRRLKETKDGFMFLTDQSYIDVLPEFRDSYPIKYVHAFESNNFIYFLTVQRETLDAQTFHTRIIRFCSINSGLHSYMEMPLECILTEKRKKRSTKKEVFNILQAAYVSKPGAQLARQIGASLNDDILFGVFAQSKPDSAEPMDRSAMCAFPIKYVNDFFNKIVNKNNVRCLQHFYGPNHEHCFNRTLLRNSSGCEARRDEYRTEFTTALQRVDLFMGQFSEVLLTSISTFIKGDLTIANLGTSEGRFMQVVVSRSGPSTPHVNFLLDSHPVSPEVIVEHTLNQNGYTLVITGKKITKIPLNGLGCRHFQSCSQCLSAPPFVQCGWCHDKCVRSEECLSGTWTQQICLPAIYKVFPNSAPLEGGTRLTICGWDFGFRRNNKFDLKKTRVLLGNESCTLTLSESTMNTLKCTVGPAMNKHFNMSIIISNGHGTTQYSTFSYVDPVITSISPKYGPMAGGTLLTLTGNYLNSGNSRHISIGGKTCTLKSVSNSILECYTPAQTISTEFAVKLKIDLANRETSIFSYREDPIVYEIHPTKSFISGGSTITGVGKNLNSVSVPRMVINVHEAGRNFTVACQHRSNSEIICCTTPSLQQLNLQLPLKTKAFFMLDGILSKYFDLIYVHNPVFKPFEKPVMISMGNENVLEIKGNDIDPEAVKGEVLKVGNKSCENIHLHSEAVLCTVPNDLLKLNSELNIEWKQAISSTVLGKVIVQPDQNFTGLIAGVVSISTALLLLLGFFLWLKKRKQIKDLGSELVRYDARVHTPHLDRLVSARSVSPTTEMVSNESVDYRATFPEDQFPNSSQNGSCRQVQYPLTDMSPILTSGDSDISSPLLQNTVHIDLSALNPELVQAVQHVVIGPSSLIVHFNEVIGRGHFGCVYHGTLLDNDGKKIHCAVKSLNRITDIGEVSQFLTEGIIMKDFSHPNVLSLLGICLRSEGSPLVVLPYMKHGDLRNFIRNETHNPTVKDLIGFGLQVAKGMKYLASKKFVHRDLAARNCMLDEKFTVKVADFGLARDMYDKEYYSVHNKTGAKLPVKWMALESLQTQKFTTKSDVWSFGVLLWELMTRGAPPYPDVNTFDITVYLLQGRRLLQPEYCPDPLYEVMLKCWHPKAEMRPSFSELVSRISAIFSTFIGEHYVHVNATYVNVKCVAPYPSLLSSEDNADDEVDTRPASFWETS

IC50, inhibition of ERK phospho-T202/Y204 in Hs746T cells [1]: 500 pM
B1: 06BS03 (bispecific antibody, V domains shown)
VH 1: QVQLVESGGGVVQPGKSLRLSCAASGFTFSSSGLHWVRQAPGKGLEWVAVISYDTSNKYYADSVKGRFTISRDNSKNTLYLQMNSLRAEDTAVYYCAKDLNRGYDWGFDYWGQGTLVTVSS
VH 2: QFQLQESGPGLVKPSETLSLTCTVSGGSISTSSYYWGWIRQPPGKGLEWIGTIYYSGTTYYNPSLKSRVTISVDTSKNQFSLKLKSVTAADTSIYYCARHWPKYNSWFDPWGQGILVTVSS
VL: not shown

IC50, inhibition of HGF-induced ERK phospho-T202/Y204 in H596 cells [2]: > 250000 pM
B2: 063Ab07710 (antibody, human IgG1, kappa, V domains shown)
VH: QVQLVESGGGVVQPGRSLRLSCAASGFTFSSYGMHWVRQAPGKGLEWVAVISNDGSYKYYVDSVTGRFTISRDNSKNTLYLQMNSLRAEDTAVYYCAKDRNMGYSGWFDYWGQGSLVTVSS
VL: not shown

Imax %, inhibition of HGF-induced ERK phospho-T202/Y204 in H596 cells [3]: 90%
B3: 06BS02 (bispecific antibody, V domains shown)
VH 1: B2 VH with Y32H, N53Y, G55E, Y57D, V61A, T65K, N74H, A97V, F108L, S115T
VH 2: B1 VH 2 with Y55F, K66T, T70S, I71M, K85N, I115F
VL: not shown
